In the assay the target is His-tagged human FcRn/β2-microglobulin complex (human) (UniProt P55899). Description: SPR; Biacore 8K, CM5 chip; His-tagged human FcRn/β2-microglobulin captured (45-60 RU) on covalently linked anti-His antibody; IgG1 injected as two-fold, eight-step series 75 nM to 0.29 nM; 25 °C; 20 mM phosphate pH 6.0, 137 mM NaCl, 2.7 mM KCl, 0.05% Tween-20; 1:1 binding model, apparent constants, KD = kd/ka; n=3 …. (In general: Surface plasmon resonance follows binding to a sensor surface in real time, without labels.)

Broadly, the koff is the first-order rate constant of dissociation. As usually defined, the kon is a measure of how fast the partners come together.

Chain of UniProt P55899 (P55899 24-297, chain 1 of 2): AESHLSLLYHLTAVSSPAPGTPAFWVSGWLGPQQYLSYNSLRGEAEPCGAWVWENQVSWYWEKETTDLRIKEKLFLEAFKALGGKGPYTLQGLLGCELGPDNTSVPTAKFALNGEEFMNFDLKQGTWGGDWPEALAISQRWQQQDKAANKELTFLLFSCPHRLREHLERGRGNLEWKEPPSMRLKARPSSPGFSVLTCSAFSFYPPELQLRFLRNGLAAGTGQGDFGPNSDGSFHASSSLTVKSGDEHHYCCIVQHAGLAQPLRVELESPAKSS
Chain of UniProt P55899 (P61769 21-119, chain 2 of 2, further chain): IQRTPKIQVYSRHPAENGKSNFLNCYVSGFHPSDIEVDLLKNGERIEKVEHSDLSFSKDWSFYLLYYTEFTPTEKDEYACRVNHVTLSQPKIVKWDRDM

Regarding IgG1-Campath (antibody), the Kd worked out at 67.6 nM, the off-rate constant (koff) turned out to be 0.0439 s⁻¹ and the kon is 649000 M⁻¹ s⁻¹.

The values above are taken from publication PMC9546771.
